Data published in the nanobody polyreactivity screen of Harvey et al. (2022).

Assay: yeast display, Sf9 membrane polyspecificity reagent, FACS + sequencing; frameworks hold sequencing errors
Outline: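 A nanobody's polyreactivity label depends on the gate it was sorted from. Yeast display cells were stained with 10% biotinylated, detergent-solubilized Sf9 membrane reagent for 1 hour at 4 °C, enriched on streptavidin microbeads and sorted by FACS. The low and high (top ~1%) gates were set on anti-HA fluorescence for expression and streptavidin fluorescence for reagent binding.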

With “QVQLVESGGGLVQAGGSLRLSCAASGSTFGSYAMGWYRQAPGKERELVASISSRGGSTYYADSVKGRFTISRDNAKNTVYLQMNSLKPEDTAVYYCPATRYSAYSRGKYNFWGQGTQVTVSS” as the sequence, how does the “polyreactivity (PSR sort gate)” value read?
The value was “high polyreactivity”.

For “QVQLVESGGGLVQAGGSLRLSCAASGSTFGTNVMGWYRQAPGKERELVAAISRRGSSTYYADSVKGRFTISRDNAKNTVYLQMNSLKPEDTAVYYCAARVYPSAAMDSWGQGTQVTVSS”, which “polyreactivity (PSR sort gate)” value is on record?
Its value is “high polyreactivity”.

Which “polyreactivity (PSR sort gate)” value does the source give for “QVQLVESGGGLVQAGGSLRLSCAASGSTFGTYAMGWYRQAPGKERELVAAITSGDNTYYADSVKGRFTISRDNAKNTVYLPMNSLKPEDTAVYYCAKDYNRYYWPWVIRGYDYWGQGTHVTVSS” here?
Its value is “low polyreactivity”.

For “QVQLVESGGGLVQAGGSLRLSCAASGSTFGTYAMGWYRQEPGKERELVAAINRDGGRTYYADSVKGRFTISRDNAKNTVYLQMNSLKPEDTAVYYCAAEGLDEGDYWGQGTQVTVSS”, which “polyreactivity (PSR sort gate)” value is on record?
The value was “low polyreactivity”.

Which “polyreactivity (PSR sort gate)” value does the source give for “QVQLVESGGGLVQAGGSLRLSCAASGSTFGVNALGWYRQAPGKERELVAVITRSGGSTYYADSVKGRFTISRDNAKNTVYLQMNSLKPEDTAVYYCAKSGVVDWGQGTQVTVSS” here?
The value was “low polyreactivity”.

Which “polyreactivity (PSR sort gate)” value does the source give for “QVQLVESGGGLVQAGGSLRLSCAASGSTFGVNAMGWYRQAPGKERELVADMSFRTDSTYYADSVKGRFTISRDNAKNTVYLQMNRLNPEDTAVYYCAAEVPYYYPGFYSYYDDSDYWGQGTQVTVSS” here?
The value was “low polyreactivity”.

For “QVQLVESGGGLVQAGGSLRLSCAASGSTFGVNAMGWYRQAPGKERELVAIITSTTYADSVKGRFTISRDNAKNTVYLQMNSLKPEDTAVYYCAKDQERVTKGRFYLLEYYWGQGTQVTVSS”, which “polyreactivity (PSR sort gate)” value is on record?
The value was “low polyreactivity”.

Which “polyreactivity (PSR sort gate)” value does the source give for “QVQLVESGGGLVQAGGSLRLSCAASGSTFGVNAMGWYRQAPGKERELVAVITRSGGSTYYADSVKGRFTISRDNAKNTVYLQMNSLKPEDTAVYYCATSGVVDWGQGTQVTVSS” here?
The value was “low polyreactivity”.

For “QVQLVESGGGLVQAGGSLRLSCAASGSTFGVYAMGWYREAPGKERELVAAINKSGTRTYYADSVKGRFTISRDNAKNTVYLQMNSLKPEDTAVYYCAADQGTYGYGGFYYWGQGTQVTVSS”, which “polyreactivity (PSR sort gate)” value is on record?
The value was “high polyreactivity”.

Which “polyreactivity (PSR sort gate)” value does the source give for “QVQLVESGGGLVQAGGSLRLSCAASGSTFGVYAMGWYRQAPGKEREFVAAITSSSGSTYYADSVKGRFTISRDNAKNTVYLQMNSLKPEDTAVYYCNVQGWTRSDAGRYDNMDYWGQGTQVTVSS” here?
Its value is “low polyreactivity”.

With “QVQLVESGGGLVQAGGSLRLSCAASGSTFGVYDMGWYRQAPGKERELVAAITGNGGRTYYADSVKGRFTISRDNAKNTVYLQMNSLKPEDTAVYYCNARVKRYVYWPYDYWGQGTQVTVSS” as the sequence, how does the “polyreactivity (PSR sort gate)” value read?
The value was “high polyreactivity”.

With “QVQLVESGGGLVQAGGSLRLSCAASGSTFGWYAMGGYRQAPGKERELVAAISSGGSTYYADSVKGRFTISRDHAKYTVYLQMNSLKPEDTAVYYCAADIGYYYRYDYWGQGTQVTVSS” as the sequence, how does the “polyreactivity (PSR sort gate)” value read?
The value was “low polyreactivity”.

For “QVQLVESGGGLVQAGGSLRLSCAASGSTFGWYAMGLYRQAPGKERELVATISSGGSTYYADSVKGRFTISRDNAKNTVYLQMNSLKPEDTAVYYCAADYWTYEYPGYDYWGQGTQVTVSS”, which “polyreactivity (PSR sort gate)” value is on record?
Its value is “low polyreactivity”.

Which “polyreactivity (PSR sort gate)” value does the source give for “QVQLVESGGGLVQAGGSLRLSCAASGSTFGWYAMGWYRQAPGKERELVAAISTSGNTYYADSVKGRFTISRDNAKNTVYLHMNRLKPEDTAVSYCAKYVNPDHDYWGQGTQVTVSS” here?
Its value is “low polyreactivity”.

For “QVQLVESGGGLVQAGGSLRLSCAASGSTFGWYTMGWYRQAPGKERELVAAITSRGTRTSYADSVKGRFTISRDNAKNTVYLQMNSLKPEDTAVYYCAARVFRGLGEYYWGQGTQVTVSS”, which “polyreactivity (PSR sort gate)” value is on record?
The value was “high polyreactivity”.

For “QVQLVESGGGLVQAGGSLRLSCAASGSTFGYNAMGWYRQAPGKEREFVASIDARGTSTYYADSVKGRFTISRDNAKNTVYLQMNSLKPEYTAVYYCAADAEFTWSTVRLGWIYIWYEYWGQGTQVTVSS”, which “polyreactivity (PSR sort gate)” value is on record?
The value was “low polyreactivity”.

For “QVQLVESGGGLVQAGGSLRLSCAASGSTFGYNAMGWYRQAPGKEREFVATIRYSGDRTYYADSVKGRFTISRDNAKNTVYLQMNSLKPEDTAVYYCAADLYYNSYGRYGRYYYWGQGTQVTVSS”, which “polyreactivity (PSR sort gate)” value is on record?
Its value is “high polyreactivity”.
